According to patent publication US6132976:
Each block holds one molecule with its values, some of them ahead of it. Non-standard residues stand in square brackets, D forms with d. No end group written: not given here. Hyp = O=C(O)[C@@H]1C[C@@H](O)CN1

Key:
[1] = molecular target: heat denatured type II collagen (HDC)
[2] = molecular target: native helical type II collagen
[3] = molecular target: monoclonal antibody COL2-3/4m; assay: inhibition ELISA with COL2-3/4m, HDC on the plate; sample incubated in Tris/CaCl2 without collagenase

Molecule: chromatographically purified collagenase form III from Clostridium histolyticum (enzyme)
- [α1(II)-CB11B] by immunoassay (µg/ml) after treatment [1]: 0.84 µg/mL

- [CB11B] BY INHIBITION ASSAY (µg/ml) of NC + 500 µg/ml CHYMOTRYPSIN [2]: 0 µg/mL
Molecule: α-chymotrypsin (enzyme)

- [α1(II)-CB11B] by immunoassay [3]: 4.44 µg/mL
B1: synthetic peptide CB11B (peptide)
peptide: CGKVGPSGA[Hyp]GEDGR[Hyp]GP[Hyp]GPQY
